In US20250313631A1 (HUMMINGBIRD BIOSCIENCE PTE, published 2025):
Blank lines part the entries; values can stand above or below the binder they belong to.

Key:
[1] = target: T1, recombinant human VISTA (His-tagged) (human, UniProt Q9H7M9 33-194); assay: antigen-binding ELISA; HMBD-002 in F6, day 20 at 40°C
T1 construct: bought soluble protein (Sino Biological); also called hVISTA; human VISTA polypeptide

[2] = target: T1, recombinant human VISTA (His-tagged); assay: antigen-binding ELISA; HMBD-002 in F6, day 10 at 40°C
[3] = target: T1, recombinant human VISTA (His-tagged); assay: antigen-binding ELISA; HMBD-002 10 mg/mL in F4, day 0
[4] = target: T1, recombinant human VISTA (His-tagged); assay: antigen-binding ELISA; HMBD-002 10 mg/mL in F7, day 0
[5] = target: T1, recombinant human VISTA (His-tagged); assay: antigen-binding ELISA; HMBD-002 10 mg/mL in F3, day 0
[6] = target: T2, recombinant rat VISTA (His-tagged) (rat, UniProt A0ABK0L5H3 33-192); assay: ELISA, VISTA-HIS protein coated; ELISA, rat VISTA-HIS
T2 sequence: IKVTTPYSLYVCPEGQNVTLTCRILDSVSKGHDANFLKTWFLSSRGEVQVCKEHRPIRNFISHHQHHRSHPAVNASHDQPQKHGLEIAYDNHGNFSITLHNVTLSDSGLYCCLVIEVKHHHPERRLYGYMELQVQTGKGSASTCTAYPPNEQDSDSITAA
Protocol: 384-well plates were coated with 1 μg/ml of target antigen diluted in PBS for 16 hrs at 4° C. […] After washing, plates were developed with colorimetric detection substrate 3,3′,5,5′-tetramethylbenzidine (Turbo-TMB; Pierce) for 10 min.

[7] = target: T1, recombinant human VISTA (His-tagged); assay: antigen-binding ELISA; HMBD-002 in F6, day 30 at 40°C
[8] = target: T1, recombinant human VISTA (His-tagged); assay: BLI (Octet), 1:1 global fit, His-tagged human VISTA captured
human B7H7 = target: T3, human B7H7 (human, UniProt Q9UM44 23-344); assay: ELISA, plate coated with the antigen
T3 construct: also called HHLA2
T3 sequence (looked up): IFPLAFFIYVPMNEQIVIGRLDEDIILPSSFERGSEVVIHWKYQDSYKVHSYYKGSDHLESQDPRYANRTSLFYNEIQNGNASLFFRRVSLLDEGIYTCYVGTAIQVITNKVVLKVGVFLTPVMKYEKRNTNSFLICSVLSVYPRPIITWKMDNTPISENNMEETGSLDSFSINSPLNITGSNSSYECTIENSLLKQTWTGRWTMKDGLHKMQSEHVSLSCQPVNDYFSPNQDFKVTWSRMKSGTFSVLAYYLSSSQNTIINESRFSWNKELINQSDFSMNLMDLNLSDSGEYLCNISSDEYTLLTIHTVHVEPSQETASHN

human B7H4 = target: T4, human B7H4 (human, UniProt Q7Z7D3 25-258, limits assumed); assay: ELISA, plate coated with the antigen
T4 construct: also called VTCN1
T4 sequence (looked up): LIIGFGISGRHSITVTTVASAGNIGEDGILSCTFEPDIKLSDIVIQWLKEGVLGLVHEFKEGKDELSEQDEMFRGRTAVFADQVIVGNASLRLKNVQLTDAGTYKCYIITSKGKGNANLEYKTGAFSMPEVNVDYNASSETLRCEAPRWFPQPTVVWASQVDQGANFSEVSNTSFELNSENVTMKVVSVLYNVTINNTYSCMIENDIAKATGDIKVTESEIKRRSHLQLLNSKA

human B7H6 = target: T5, human B7H6 (human, UniProt Q68D85 25-262); assay: ELISA, plate coated with the antigen
T5 construct: also called NCR3LG1
T5 sequence (looked up): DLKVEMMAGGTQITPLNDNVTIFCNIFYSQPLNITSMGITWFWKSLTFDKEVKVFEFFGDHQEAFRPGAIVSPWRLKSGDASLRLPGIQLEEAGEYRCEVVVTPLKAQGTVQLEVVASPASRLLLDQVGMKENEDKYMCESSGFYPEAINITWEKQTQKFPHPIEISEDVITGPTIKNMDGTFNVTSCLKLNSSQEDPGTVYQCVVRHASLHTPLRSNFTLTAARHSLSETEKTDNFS

human PD-1 = human PD-1 (human, UniProt Q15116 25-167); assay: ELISA, plate coated with the antigen
Sequence of human PD-1 (Q15116 25-167 limits assumed): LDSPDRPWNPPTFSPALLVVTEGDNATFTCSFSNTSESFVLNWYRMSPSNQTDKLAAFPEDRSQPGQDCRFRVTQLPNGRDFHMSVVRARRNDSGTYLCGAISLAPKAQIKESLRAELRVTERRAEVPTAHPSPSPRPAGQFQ

[9] = target: T6, recombinant cynomolgus macaque VISTA (His-tagged) (cynomolgus macaque, UniProt A0A7N9IB00 33-194); assay: ELISA, target protein coated, % Binding against log M of antibody
T6 construct: also called cyno VISTA; cynomolgus monkey VISTA
Protocol: (§1) ELISAs were used to determine the binding specificity of the antibodies.
(§2) Briefly, 96-well plates (Nunc, Denmark) were coated with 1 μg/ml of target protein in phosphate-buffered saline (PBS) for 2 h at 37° C. After blocking for 1 h with 10% BSA in Tris buffer saline (TBS) at room temperature, the test antibody was serially diluted (12 point serial dilution) with the highest concentration being 30 μg/ml and added to the plate, in the. Post 1 h incubation at room temperature, plates were washed three times with TBS containing 0.05% Tween 20 (TBS-T) and were then incubated with a HRP-conjugated anti-mouse IgG antibody (Life Technologies, Inc., USA) for 1 h at room temperature. After washing, plates were developed with colorimetric detection substrate 3,3′,5,5′-tetramethylbenzidine (Turbo-TMB; Pierce, USA) for 15 min at room temperature.

human HER3 = human HER3 (human, UniProt P21860 20-643); assay: as above
Protocol: as §1, §2

human PD-L1 = target: T7, human PD-L1 (human, UniProt Q9NZQ7 19-239); assay: as above
T7 construct: captured through a His tag in the BLI experiments; also called hPD-L1; B7H1/PDL-1
T7 sequence (Q9NZQ7 19-239 limits assumed): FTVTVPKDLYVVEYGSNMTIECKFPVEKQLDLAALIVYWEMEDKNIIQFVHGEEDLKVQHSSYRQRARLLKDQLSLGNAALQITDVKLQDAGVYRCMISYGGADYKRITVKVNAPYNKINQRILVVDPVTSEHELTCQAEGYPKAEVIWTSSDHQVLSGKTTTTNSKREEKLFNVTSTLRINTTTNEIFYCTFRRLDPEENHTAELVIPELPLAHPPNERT
Protocol: as §1, §2

[10] = target: T1, recombinant human VISTA (His-tagged); assay: as above
Protocol: as §1, §2

[11] = target: T8, recombinant mouse VISTA (His-tagged) (mouse, UniProt Q9D659 33-191); assay: as above
T8 construct: also called murine VISTA; mVISTA
T8 sequence (looked up): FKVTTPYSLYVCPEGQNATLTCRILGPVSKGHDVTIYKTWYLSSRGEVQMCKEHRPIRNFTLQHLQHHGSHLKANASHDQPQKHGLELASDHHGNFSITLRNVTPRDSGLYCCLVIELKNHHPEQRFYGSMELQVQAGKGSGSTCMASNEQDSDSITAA
Protocol: as §1, §2

[12] = target: T1, recombinant human VISTA (His-tagged); assay: BLI (Octet QK384): His-tagged human VISTA on anti-Penta-HIS tips, V4 1000 to 31.3 nM as analyte, global fit; value of the table column kdis(1/s)
Protocol: All measurements were performed at 25° C. with agitation at 1000 rpm. Kinetic measurements for antigen binding were performed by loading anti-VISTA antibody at different concentrations (indicated in the Figures) for 120 s, followed by a 120 s dissociation time by transferring the biosensors into assay buffer containing wells. Sensograms were referenced for buffer effects and then fitted using the Octet QK384 user software (Pall ForteBio, USA).
Kinetic responses were subjected to a global fitting using a one site binding model to obtain values for association (kon), dissociation (koff) rate constants and the equilibrium dissociation constant (KD). Only curves that could be reliably fitted with the software (R²>0.90) were included in the analysis.

EC50 [1]: 0.0186 nM | EC50 [2]: 0.0306 nM | EC50 [3]: 0.0357 nM | EC50 [4]: 0.0289 nM | EC50 [5]: 0.0308 nM | EC50 [6]: 0.00669 nM | EC50 [7]: 0.0218 nM
B1: V4-C26 hIgG4 (antibody)
heavy: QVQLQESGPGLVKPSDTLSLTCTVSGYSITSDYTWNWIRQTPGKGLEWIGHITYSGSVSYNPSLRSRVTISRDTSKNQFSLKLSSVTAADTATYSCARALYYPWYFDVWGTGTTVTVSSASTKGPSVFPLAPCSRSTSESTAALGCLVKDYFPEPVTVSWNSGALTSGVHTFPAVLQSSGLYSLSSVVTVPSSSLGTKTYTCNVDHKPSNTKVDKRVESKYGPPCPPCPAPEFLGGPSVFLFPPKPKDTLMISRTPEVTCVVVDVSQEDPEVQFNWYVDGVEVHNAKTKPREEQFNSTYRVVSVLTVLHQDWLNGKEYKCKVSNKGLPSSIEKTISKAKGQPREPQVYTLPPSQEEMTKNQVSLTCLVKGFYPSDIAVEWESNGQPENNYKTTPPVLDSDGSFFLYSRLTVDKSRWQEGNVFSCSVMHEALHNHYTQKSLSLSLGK
light: EIVLTQSPATLSLSPGERATLSCRASSSVGYIHWYQQKPGQAPRPIIYTTSNRATGIPARFSGSGSGTDNTLTISSLEPEDSAVYYCQQWSSYPPITFGGGTKLEVKRTVAAPSVFIFPPSDEQLKSGTASVVCLLNNFYPREAKVQWKVDNALQSGNSQESVTEQDSKDSTYSLSSTLTLSKADYEKHKVYACEVTHQGLSSPVTKSFNRGEC
notes: human IgG4 (S228P)/kappa format; also called HMBD-002; HMBD-002-V4C26

Kd [8]: < 0.001 nM | koff [8]: < 1e-07 s⁻¹ | kon [8]: 128000 M⁻¹ s⁻¹ | binding result (human B7H7): no binding (tested: log -7.5 M) | binding result (human B7H4): no binding (tested: log -7.5 M) | binding result (human B7H6): no binding (tested: log -7.5 M) | binding result (human PD-1): no binding (tested: log -7.5 M) | EC50 [9]: 0.282 nM | EC50 [10]: 0.256 nM | EC50 [11]: 5.93 nM | koff [12]: < 1e-07 s⁻¹
B2: anti-VISTA clone 4M2-C12 IgG1 (antibody)
heavy: not shown
light: DIVITQTPAILSTSPGEKVTMTCRASSSVGYIHWYQQKPGSSPKPWIYATSNLASGVPARFSGSGSGTSNSLTITRVEAEDAATYYCQQWSSYPPITFGGGTKLEVKRTVAAPSVFIFPPSDEQLKSGTASVVCLLNNFYPREAKVQWKVDNALQSGNSQESVTEQDSKDSTYSLSSTLTLSKADYEKHKVYACEVTHQGLSSPVTKSFNRGEC
notes: mouse variable regions on human IgG1/kappa constant regions; also called V4; V4pr
binding result (human HER3): no binding (tested: about 10^-6.2 M (log M axis)) | binding result (human PD-L1): no binding (tested: about 10^-6.7 M (log M axis))
